Test results published in US20190055527A1 (KYUSHU UNIVERSITY NATIONAL UNIVERSITY, published 2019).

Assays:
Test in all cases: SPR (BIAcore J), PfuPCNA immobilised on CM5 chip, polymerase variant as analyte, 25° C.
Taq81 (PIP-L5-Taq) = biological target: T1, Taq81 (PIP-L5-Taq) (Thermus aquaticus, UniProt P19821 1-832)
T1 construct: expressed in E. coli and purified; also called DNA polymerase variant Taq81
Protocol: (§1) In the surface plasmon resonance (SPR) analysis, BIAcore J (manufactured by BIACORE) was used. A PCNA from Pyrococcus furiosus (J. Bacteriology, 181, 6591-6599, 1999: hereinafter referred to as PfuPCNA) was immobilized on a CM5 sensor chip (manufactured by GE Healthcare) by amine coupling, and the measurement was carried out under the conditions of 25° C., a flow rate of 30 μL/minutes, and a solution E (10 mM Tris-HCl, 50 mM KCl, 1.5 mM MgCl₂, pH 8.3). A sample solution of Taq81 to Taq85 diluted to 10, 20, 40, 80, 160, or 320 nM or a sample solution of Taq94 diluted to 125 nM, 250 nM, 500 nM, 1 μM, or 2 μM was each added for 2 minutes. The sensorgrams obtained were analyzed by BIA evaluation program, and the dissociation constants (Kd) between Taq81 to Taq85 and PfuPCNA and between Taq94 and PfuPCNA were calculated.
(§2) The dissociation constants (Kd) with respect to the bindings between five kinds of Taq DNA polymerases to which PIP box was added at an N-terminal, each having a different length of a linker peptide (Taq81, Taq82, Taq83, Taq84, and Taq85), and PfuPCNA were calculated. As a result, the values were 7.1×10⁻⁷ M, 4.4×10⁻⁷ M, 2.4×10⁻⁷ M, 2.5×10⁻⁷ M, and 2.0×10⁻⁷ M, which were nearly of the same level regardless of the lengths of the linker peptides.

Taq82 (PIP-L10-Taq) = biological target: T2, Taq82 (PIP-L10-Taq) (Thermus aquaticus, UniProt P19821 1-832)
T2 construct: N-terminal PfuRFCL PIP box, 10-residue Ser/Gly linker, Taq DNA polymerase; also called DNA polymerase variant Taq82
T2 sequence (P19821 other isoform, or with tags, fused parts or gaps): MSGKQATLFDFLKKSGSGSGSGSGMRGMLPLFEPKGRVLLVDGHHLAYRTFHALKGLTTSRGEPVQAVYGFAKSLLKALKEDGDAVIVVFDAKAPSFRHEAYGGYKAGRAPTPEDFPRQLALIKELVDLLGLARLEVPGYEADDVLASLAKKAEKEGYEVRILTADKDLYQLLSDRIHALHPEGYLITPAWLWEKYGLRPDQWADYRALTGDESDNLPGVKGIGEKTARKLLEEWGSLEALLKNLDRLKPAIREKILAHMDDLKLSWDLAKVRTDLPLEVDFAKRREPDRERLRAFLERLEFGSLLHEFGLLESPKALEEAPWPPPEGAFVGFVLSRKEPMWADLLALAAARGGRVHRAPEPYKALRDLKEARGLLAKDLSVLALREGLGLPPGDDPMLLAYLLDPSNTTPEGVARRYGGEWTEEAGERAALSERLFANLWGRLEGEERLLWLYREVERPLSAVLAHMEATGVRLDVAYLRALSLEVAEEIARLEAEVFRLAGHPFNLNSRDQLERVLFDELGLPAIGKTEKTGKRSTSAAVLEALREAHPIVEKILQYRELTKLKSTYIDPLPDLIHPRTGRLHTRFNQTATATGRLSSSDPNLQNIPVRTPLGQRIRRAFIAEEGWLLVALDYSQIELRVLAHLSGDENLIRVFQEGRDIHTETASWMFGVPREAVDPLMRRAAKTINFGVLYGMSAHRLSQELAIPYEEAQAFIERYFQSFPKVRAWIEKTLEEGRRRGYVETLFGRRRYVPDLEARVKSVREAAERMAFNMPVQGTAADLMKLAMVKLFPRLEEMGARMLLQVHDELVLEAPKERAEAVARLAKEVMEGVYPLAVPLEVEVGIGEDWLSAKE
Protocol: as §1, §2

Taq83 (PIP-L15-Taq) = biological target: T3, Taq83 (PIP-L15-Taq) (Thermus aquaticus, UniProt P19821 1-832)
T3 construct: N-terminal PfuRFCL PIP box, 15-residue Ser/Gly linker, Taq DNA polymerase; also called DNA polymerase variant Taq83
T3 sequence (P19821 other isoform, or with tags, fused parts or gaps): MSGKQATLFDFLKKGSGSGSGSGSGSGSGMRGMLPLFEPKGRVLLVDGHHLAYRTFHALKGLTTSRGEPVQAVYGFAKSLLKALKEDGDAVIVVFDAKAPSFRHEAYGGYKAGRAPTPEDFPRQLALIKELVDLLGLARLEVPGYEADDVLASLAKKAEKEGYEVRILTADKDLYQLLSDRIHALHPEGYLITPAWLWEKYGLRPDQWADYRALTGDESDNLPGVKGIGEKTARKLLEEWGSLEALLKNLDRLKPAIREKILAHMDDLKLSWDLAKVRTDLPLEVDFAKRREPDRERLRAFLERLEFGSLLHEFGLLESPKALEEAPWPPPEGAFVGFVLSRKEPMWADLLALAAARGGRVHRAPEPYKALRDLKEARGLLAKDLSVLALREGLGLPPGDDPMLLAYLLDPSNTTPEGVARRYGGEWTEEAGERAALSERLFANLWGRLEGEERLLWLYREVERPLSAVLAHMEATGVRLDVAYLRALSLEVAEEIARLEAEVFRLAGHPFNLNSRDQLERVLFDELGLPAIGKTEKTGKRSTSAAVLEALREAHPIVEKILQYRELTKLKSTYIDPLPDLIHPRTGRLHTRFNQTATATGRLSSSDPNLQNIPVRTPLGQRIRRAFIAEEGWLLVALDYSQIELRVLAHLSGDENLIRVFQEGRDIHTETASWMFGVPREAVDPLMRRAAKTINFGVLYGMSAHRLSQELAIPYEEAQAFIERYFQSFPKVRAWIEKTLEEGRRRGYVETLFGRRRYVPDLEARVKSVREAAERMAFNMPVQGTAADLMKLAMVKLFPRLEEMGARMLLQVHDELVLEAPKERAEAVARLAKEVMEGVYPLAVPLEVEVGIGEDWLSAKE
Protocol: as §1, §2

Taq84 (PIP-L35-Taq) = biological target: T4, Taq84 (PIP-L35-Taq) (Thermus aquaticus, UniProt P19821 1-832)
T4 construct: N-terminal PfuRFCL PIP box, 35-residue Ser/Gly linker, Taq DNA polymerase; also called DNA polymerase variant Taq84
T4 sequence (P19821 other isoform, or with tags, fused parts or gaps): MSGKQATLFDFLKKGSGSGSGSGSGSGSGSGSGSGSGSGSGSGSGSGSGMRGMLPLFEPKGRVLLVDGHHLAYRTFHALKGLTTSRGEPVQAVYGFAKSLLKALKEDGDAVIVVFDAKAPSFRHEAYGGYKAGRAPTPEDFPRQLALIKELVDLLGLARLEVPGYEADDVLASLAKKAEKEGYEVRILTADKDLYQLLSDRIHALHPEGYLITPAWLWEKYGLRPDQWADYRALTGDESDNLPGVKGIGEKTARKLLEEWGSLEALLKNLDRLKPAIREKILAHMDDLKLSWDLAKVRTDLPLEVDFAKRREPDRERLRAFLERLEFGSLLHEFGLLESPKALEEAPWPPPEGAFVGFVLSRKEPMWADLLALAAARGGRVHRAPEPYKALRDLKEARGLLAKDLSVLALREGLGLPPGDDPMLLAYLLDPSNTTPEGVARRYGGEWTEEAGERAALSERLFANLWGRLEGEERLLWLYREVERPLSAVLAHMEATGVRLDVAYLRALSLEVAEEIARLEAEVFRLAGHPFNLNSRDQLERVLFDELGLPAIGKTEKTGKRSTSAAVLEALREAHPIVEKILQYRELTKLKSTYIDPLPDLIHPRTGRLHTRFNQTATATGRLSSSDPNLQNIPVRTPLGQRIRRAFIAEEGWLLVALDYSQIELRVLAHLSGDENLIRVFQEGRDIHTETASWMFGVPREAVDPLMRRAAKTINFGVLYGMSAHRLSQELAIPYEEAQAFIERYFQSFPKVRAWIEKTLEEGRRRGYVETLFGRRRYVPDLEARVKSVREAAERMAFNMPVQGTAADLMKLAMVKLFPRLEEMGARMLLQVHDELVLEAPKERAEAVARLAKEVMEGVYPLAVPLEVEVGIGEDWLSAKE
Protocol: as §1, §2

Taq85 (PIP-L47-Taq) = biological target: T5, Taq85 (PIP-L47-Taq) (Thermus aquaticus, UniProt P19821 1-832)
T5 construct: N-terminal PfuRFCL PIP box, 47-residue Ser/Gly linker, Taq DNA polymerase; also called DNA polymerase variant Taq85
T5 sequence (P19821 other isoform, or with tags, fused parts or gaps): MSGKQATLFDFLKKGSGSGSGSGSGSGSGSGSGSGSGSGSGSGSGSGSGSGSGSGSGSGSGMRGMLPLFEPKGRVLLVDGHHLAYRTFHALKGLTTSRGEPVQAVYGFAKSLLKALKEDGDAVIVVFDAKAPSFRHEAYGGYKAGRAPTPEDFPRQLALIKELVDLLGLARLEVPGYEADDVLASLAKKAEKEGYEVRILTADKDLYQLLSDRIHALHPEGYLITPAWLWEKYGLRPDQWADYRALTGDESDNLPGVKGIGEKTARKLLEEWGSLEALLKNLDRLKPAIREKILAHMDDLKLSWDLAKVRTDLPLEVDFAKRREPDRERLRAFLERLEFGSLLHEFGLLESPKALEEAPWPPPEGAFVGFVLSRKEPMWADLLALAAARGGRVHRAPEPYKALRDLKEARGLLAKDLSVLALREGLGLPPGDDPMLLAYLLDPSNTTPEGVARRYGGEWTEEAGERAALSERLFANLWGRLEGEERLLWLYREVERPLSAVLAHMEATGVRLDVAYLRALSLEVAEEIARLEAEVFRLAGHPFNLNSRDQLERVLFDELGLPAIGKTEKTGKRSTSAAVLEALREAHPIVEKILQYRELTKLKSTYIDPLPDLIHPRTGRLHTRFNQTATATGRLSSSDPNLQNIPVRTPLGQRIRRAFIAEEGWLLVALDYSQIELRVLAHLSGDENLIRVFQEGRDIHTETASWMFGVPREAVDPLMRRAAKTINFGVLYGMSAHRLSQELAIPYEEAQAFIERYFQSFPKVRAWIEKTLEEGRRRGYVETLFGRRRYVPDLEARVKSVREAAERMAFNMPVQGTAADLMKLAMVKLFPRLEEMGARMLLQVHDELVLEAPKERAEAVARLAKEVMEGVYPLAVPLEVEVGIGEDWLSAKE
Protocol: as §1, §2

Taq94 (Taq-L15-PIP) = biological target: T6, Taq94 (Taq-L15-PIP) (Thermus aquaticus, UniProt P19821 1-832)
T6 construct: Taq DNA polymerase, 15-residue Ser/Gly linker, PfuRFCL PIP box at the C-terminus; also called DNA polymerase variant Taq94
T6 sequence (P19821 other isoform, or with tags, fused parts or gaps): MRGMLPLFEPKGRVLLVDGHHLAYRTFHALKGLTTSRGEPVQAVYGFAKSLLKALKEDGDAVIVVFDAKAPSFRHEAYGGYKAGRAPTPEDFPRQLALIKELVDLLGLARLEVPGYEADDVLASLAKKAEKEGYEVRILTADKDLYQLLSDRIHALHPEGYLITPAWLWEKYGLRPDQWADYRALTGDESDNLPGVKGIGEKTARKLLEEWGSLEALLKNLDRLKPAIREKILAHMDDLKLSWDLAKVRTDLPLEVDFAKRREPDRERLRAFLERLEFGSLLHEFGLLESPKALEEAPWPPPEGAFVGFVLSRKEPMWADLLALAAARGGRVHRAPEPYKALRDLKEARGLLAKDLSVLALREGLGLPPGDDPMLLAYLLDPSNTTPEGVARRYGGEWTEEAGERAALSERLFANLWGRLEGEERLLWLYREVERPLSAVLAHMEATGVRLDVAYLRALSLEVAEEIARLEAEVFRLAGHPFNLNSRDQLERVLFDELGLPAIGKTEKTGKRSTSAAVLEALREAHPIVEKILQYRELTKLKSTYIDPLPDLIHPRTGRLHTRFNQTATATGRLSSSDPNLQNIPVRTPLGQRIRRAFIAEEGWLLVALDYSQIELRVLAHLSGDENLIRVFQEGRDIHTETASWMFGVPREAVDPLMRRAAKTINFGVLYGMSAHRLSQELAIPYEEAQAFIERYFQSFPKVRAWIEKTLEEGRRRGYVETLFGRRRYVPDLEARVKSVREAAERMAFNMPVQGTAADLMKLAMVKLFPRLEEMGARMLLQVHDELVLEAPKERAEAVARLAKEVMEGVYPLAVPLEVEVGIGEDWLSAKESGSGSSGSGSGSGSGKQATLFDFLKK
Protocol: as §1, §2

B1: PCNA from Pyrococcus furiosus (other, UniProt O73947 1-249, looked up)
chain: MPFEIVFEGAKEFAQLIDTASKLIDEAAFKVTEDGISMRAMDPSRVVLIDLNLPSSIFSKYEVVEPETIGVNMDHLKKILKRGKAKDTLILKKGEENFLEITIQGTATRTFRVPLIDVEEMEVDLPELPFTAKVVVLGEVLKDAVKDASLVSDSIKFIARENEFIMKAEGETQEVEIKLTLEDEGLLDIEVQEETKSAYGVSYLSDMVKGLGKADEVTIKFGNEMPMQMEYYIRDEGRLTFLLAPRVEE
notes: Wild-type PfuPCNA immobilised on a CM5 chip by amine coupling; also called PfuPCNA
Kd (Taq81 (PIP-L5-Taq)): 710 nM
Kd (Taq82 (PIP-L10-Taq)): 440 nM
Kd (Taq83 (PIP-L15-Taq)): 240 nM
Kd (Taq84 (PIP-L35-Taq)): 250 nM
Kd (Taq85 (PIP-L47-Taq)): 200 nM
Kd (Taq94 (Taq-L15-PIP)): 2500 nM
